Source: patent US20240343794A1 (UNITED KINGDOM RESEARCH AND INNOVATION, published 2024)

Molecular target: T1, human IL-25R (IL-17BR) on human ILCs/ILC2s from primary CRC samples (human, UniProt Q9NRM6 18-502)
T1 construct: Endogenous receptor on primary patient cells; also called interleukin-17 receptor B
T1 sequence: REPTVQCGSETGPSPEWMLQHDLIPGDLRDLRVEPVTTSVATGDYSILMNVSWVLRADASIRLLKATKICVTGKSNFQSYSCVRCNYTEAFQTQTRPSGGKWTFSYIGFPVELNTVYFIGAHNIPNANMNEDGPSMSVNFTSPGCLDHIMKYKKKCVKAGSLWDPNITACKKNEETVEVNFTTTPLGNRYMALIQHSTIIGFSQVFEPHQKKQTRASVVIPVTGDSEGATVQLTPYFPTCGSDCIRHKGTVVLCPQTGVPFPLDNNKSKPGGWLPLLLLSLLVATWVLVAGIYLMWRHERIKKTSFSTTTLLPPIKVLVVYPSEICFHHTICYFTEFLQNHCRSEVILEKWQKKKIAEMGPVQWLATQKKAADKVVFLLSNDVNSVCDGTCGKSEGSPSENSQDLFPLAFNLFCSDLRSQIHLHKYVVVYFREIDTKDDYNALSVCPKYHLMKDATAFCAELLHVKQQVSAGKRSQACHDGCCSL
Experiment: Flow cytometry of a primary human CRC sample stained with biotinylated D9.2 plus streptavidin-BV421. Cells were pre-gated on Live CD45+, then Lin- CD4-, CD127+, and CRTH2+ for ILC2.
Method: Subsequently, samples were digested with 62.5 μg/mL Liberase TL (Roche) and 0.125 KU/mL DNase I (Sigma) in RPMI+2% FCS+10 mM HEPES at 37° C., shaking, for 45 minutes to collect lamina propria cells. After digestion, cells were passed through a 70 μm cell strainer and washed with PBS+2% FCS before antibody staining. Mesenteric lymph nodes were mechanically dissociated in RPMI, filtered through a 50 μm cell strainer, and washed with PBS+2% FCS before antibody staining. Fresh, surgically-resected human CRC and adjacent normal tissue were collected in sterile PBS and transported on ice before sample processing. Samples were mechanically dissociated into small pieces and digested with 100 μg/mL Liberase TM (Roche) and 0.2 KU/mL DNase I (Sigma) in RPMI, and incubated at 37° C. for 30 minutes. Subsequently, cells were filtered through a 70 μm cell strainer and washed with PBS+2% FCS before antibody staining for flow cytometry.
For surface staining, single cell suspensions were 333 blocked with anti-CD16/32 antibody (Fc block, clone 2.4G2) and Human TruStain FcX (Biolegend, 422302) for mouse and human samples in PBS+2% FCS respectively, and incubated with fluorochrome-conjugated or biotinylated antibodies on ice for 30 minutes in the dark. If necessary, samples were then incubated with fluorochrome-conjugated streptavidin on ice for a further 30 minutes.

B1: anti-IL25R monoclonal antibody (clone D9.2) (antibody, V domains shown)
VH: QVQLQQPGAELVRPGASVKLSCKTSGYTFISYWMNWVKQGPEQGLEWIGRIDPYDSEIQYNQKFKDKAILTVDKSSSAAYMQLISLTSEDSAVYYCARSGGFDWFAYWGQGTLVTVSA
VL: DIQMTQSPASLSVSVGETVTITCRASENINSNLAWYQQKKGKSPQLLVYDVTNLADGVPSRFSGSGSGTQYSLKINSLQSEDFGSYYCQHFWRPPYTFGGGTNLEIK
notes: Murine antibody; also called IL17BR (D9.2, AF647); IL17BR (D9.2, biotin)
  binding result: binds
